# Measurements taken from paper PMC9457990, “Evolution of Interferon-Gamma Aptamer with Good Affinity and Analytical Utility by a Rational In Silico Base Mutagenesis Post-SELEX Strategy”.
# Target: interferon-gamma (IFN-γ) (Homo sapiens, UniProt P01579 24-161)
# Assay: BLI; PBS pH 7.4, 25 °C; BLI on SA sensors with 500 nM biotinylated aptamer loaded, IFN-γ 125-2000 nM; fluorescence assay in PBS, 250 nM M5-5, MB 1:3, 30 min at 25 °C
# Settings: protein: commercial; chain copies: 2; label: biotin (BLI)
# Sequence of interferon-gamma (IFN-γ) (P01579 24-161): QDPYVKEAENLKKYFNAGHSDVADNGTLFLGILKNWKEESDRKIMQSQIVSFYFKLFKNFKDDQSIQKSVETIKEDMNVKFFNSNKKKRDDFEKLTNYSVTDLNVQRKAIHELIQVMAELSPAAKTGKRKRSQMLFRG
row,Binder,Kd [nM]
1,B1-4 (ssDNA) DNA: CCGCCCAAATCCCTAAGAGAAGACTGTAATGACATCAAACCAGACACACTACACACGCA,914
2,M2-6 (ssDNA) DNA: CCGCCCAAATCCCTAAGGGAAGACTGTAATGACATCAAACCAGACACATTACACACGCA,482
3,M1-8 (ssDNA) DNA: CCGCCCAAATCCCTAAGGGAAGACTGTAATGACATCAAACCAGACACACTACACACGCA,440
4,M5-5 (ssDNA) DNA: CCGCCCAAATCCCGAAGGGAAGAGTGTAATGACGTCAAACCAGACACATTACACACGCA,106
5,M4-10 (ssDNA) DNA: CCGCCCAAATCCCTAAGTGAAGACTGGATTGACATCAAACCAGTCACACTACACACGCA,277
6,M3-6 (ssDNA) DNA: CCGCCCAAATCCCTAAGTGAAGACTGGAATGACATCAAACCAGTCACACTACACACGCA,267
